Reference: paper PMC9248843, “Structural and biophysical studies of new L-asparaginase variants: lessons from random mutagenesis of the prototypic Escherichia coli Ntn-amidohydrolase” (Acta Crystallographica. Section D, Structural Biology, 2022)

Columns and labels:
[1] = molecular target: the molecule itself; assay: crystal structure; hanging-drop vapor diffusion at 20°C; 20–30% PEG 4000 or PEG 6000, 0.2 M MgCl2, 100 mM Tris–HCl pH 8.5; protein 10–15 mg/ml; space group P212121
[2] = molecular target: T1, EcAIII α subunit (∼20 kDa) (Escherichia coli, UniProt P37595 1-178); assay: as above; conditions: both partners purified
T1 construct: EcAIII of Escherichia coli, α subunit: cut product of the precursor up to the scissile bond Gly178-Thr179; the linker is partly degraded, residues 158-178 are not visible in the structures; also called subunit α; source: E. coli BL21 Gold, purified (DEAE-Sepharose, SEC); formed by autocleavage of the precursor
T1 sequence (looked up): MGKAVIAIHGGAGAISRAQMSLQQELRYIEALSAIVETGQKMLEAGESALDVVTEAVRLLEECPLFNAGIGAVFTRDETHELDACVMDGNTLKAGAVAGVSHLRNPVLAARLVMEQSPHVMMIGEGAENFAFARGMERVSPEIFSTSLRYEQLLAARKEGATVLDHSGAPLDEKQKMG

| Binder | binding result [1] | binding result [2] |
| --- | --- | --- |
| EcAIII variant RDM1-12, mature (processed into α/β subunits) (complex, Escherichia coli, EcAIII of Escherichia coli, α subunit: cut product up to the scissile bond Gly178-Thr179; residues 158-178 not visible in the structure; EcAIII of Escherichia coli, β subunit beginning at Thr179, with the substitutions of RDM1-12; source: E. coli BL21 Gold, purified (DEAE-Sepharose, SEC); copies: 2 + 2) chain 1: MGKAVIAIHGGAGAISRAQMSLQQELRYIEALSAIVETGQKMLEAGESALDVVTEAVRLLEECPLFNAGIGAVFTRDETHELDACVMDGNTLKAGAVAGVSHLRNPVLAARLVMEQSPHVMMIGEGAENFAFARGMERVSPEIFSTSLRYEQLLAARKEGATVLDHSGAPLDEKQKMG chain 2: TVGAVALDLDGNLAAATSTGGMTNKLPCTVGAAPLVGAGCYANNASVAVSCTGTGEVFIRALAAYDIAALMDYGGLSLAEACERVVMEKLPALGGSGGLIAIDHEGNVALPFNTEGMYRAWGYAGDTPTTGIYREKGDTVATQ | binds |  |
| EcAIII variant RDM1-3, mature (processed into α/β subunits) (complex, Escherichia coli, EcAIII of Escherichia coli, α subunit: cut product up to the scissile bond Gly178-Thr179; residues 158-178 not visible in the structure; EcAIII of Escherichia coli, β subunit beginning at Thr179, with the substitutions of RDM1-3; source: E. coli BL21 Gold, purified (DEAE-Sepharose, SEC); copies: 2 + 2) chain 1: MGKAVIAIHGGAGAISRAQMSLQQELRYIEALSAIVETGQKMLEAGESALDVVTEAVRLLEECPLFNAGIGAVFTRDETHELDACVMDGNTLKAGAVAGVSHLRNPVLAARLVMEQSPHVMMIGEGAENFAFARGMERVSPEIFSTSLRYEQLLAARKEGATVLDHSGAPLDEKQKMG chain 2: TVGAVALDLDGNLAAATSTGGMTNKLPHTVGPQPLVGAGCYANNASVAVSCTGTGEVFIRALAAYDIAALMDYGGLSLAEACERVVMEKLPALGGSGGLIAIDHEGNVALPFNTEGMYRAWGYAGDTPTTGIYREKGDTVATQ | binds |  |
| EcAIII β subunit of variant RDM1-3 (domain or fragment, Escherichia coli, UniProt P37595 179-321, looked up, EcAIII of Escherichia coli, β subunit beginning at Thr179, with the substitutions of RDM1-3; also called RDM1-3 β subunit; source: E. coli BL21 Gold, purified (DEAE-Sepharose, SEC); formed by autocleavage of the precursor) TVGAVALDLDGNLAAATSTGGMTNKLPHTVGPQPLVGAGCYANNASVAVSCTGTGEVFIRALAAYDIAALMDYGGLSLAEACERVVMEKLPALGGSGGLIAIDHEGNVALPFNTEGMYRAWGYAGDTPTTGIYREKGDTVATQ |  | binds |
| EcAIII β subunit of variant RDM1-12 (domain or fragment, Escherichia coli, UniProt P37595 179-321, looked up, EcAIII of Escherichia coli, β subunit beginning at Thr179, with the substitutions of RDM1-12; also called RDM1-12 β subunit; source: E. coli BL21 Gold, purified (DEAE-Sepharose, SEC); formed by autocleavage of the precursor) TVGAVALDLDGNLAAATSTGGMTNKLPCTVGAAPLVGAGCYANNASVAVSCTGTGEVFIRALAAYDIAALMDYGGLSLAEACERVVMEKLPALGGSGGLIAIDHEGNVALPFNTEGMYRAWGYAGDTPTTGIYREKGDTVATQ |  | binds |
| EcAIII β subunit of variant RDM1-18 (domain or fragment, Escherichia coli, UniProt P37595 179-321, looked up, also called RDM1-18 β subunit; source: E. coli BL21 Gold, purified (DEAE-Sepharose, SEC); formed by autocleavage of the precursor) TVGAVALDLDGNLAAATSTGGMTNKLPGVVGPWPLVGAGCYANNASVAVSCTGTGEVFIRALAAYDIAALMDYGGLSLAEACERVVMEKLPALGGSGGLIAIDHEGNVALPFNTEGMYRAWGYAGDTPTTGIYREKGDTVATQ |  | binds |
| EcAIII β subunit of variant RDM1-24 (domain or fragment, Escherichia coli, UniProt P37595 179-321, looked up, EcAIII of Escherichia coli, β subunit beginning at Thr179, with the substitutions of RDM1-24; also called RDM1-24 β subunit; source: E. coli BL21 Gold, purified (DEAE-Sepharose, SEC); formed by autocleavage of the precursor) TVGAVALDLDGNLAAATSTGGMTNKLPGAVGSTPLVGAGCYANNASVAVSCTGTGEVFIRALAAYDIAALMDYGGLSLAEACERVVMEKLPALGGSGGLIAIDHEGNVALPFNTEGMYRAWGYAGDTPTTGIYREKGDTVATQ |  | binds |
| EcAIII β subunit of variant RDM1-29 (domain or fragment, Escherichia coli, UniProt P37595 179-321, looked up, EcAIII of Escherichia coli, β subunit beginning at Thr179, with the substitutions of RDM1-29; also called RDM1-29 β subunit; source: E. coli BL21 Gold, purified (DEAE-Sepharose, SEC); formed by autocleavage of the precursor) TVGAVALDLDGNLAAATSTGGMTNKLPCSVGLVPLVGAGCYANNASVAVSCTGTGEVFIRALAAYDIAALMDYGGLSLAEACERVVMEKLPALGGSGGLIAIDHEGNVALPFNTEGMYRAWGYAGDTPTTGIYREKGDTVATQ |  | binds |
| EcAIII β subunit of variant RDM1-37 (domain or fragment, Escherichia coli, UniProt P37595 179-321, looked up, EcAIII of Escherichia coli, β subunit beginning at Thr179, with the substitutions of RDM1-37 (Ser211 kept); also called RDM1-37 β subunit; source: E. coli BL21 Gold, purified (DEAE-Sepharose, SEC); formed by autocleavage of the precursor) TVGAVALDLDGNLAAATSTGGMTNKLPSTVGSSPLVGAGCYANNASVAVSCTGTGEVFIRALAAYDIAALMDYGGLSLAEACERVVMEKLPALGGSGGLIAIDHEGNVALPFNTEGMYRAWGYAGDTPTTGIYREKGDTVATQ |  | binds |
| EcAIII β subunit of variant RDM1-38 (domain or fragment, Escherichia coli, UniProt P37595 179-321, looked up, EcAIII of Escherichia coli, β subunit beginning at Thr179, with the substitutions of RDM1-38; also called RDM1-38 β subunit; source: E. coli BL21 Gold, purified (DEAE-Sepharose, SEC); formed by autocleavage of the precursor) TVGAVALDLDGNLAAATSTGGMTNKLPGCVGSVPLVGAGCYANNASVAVSCTGTGEVFIRALAAYDIAALMDYGGLSLAEACERVVMEKLPALGGSGGLIAIDHEGNVALPFNTEGMYRAWGYAGDTPTTGIYREKGDTVATQ |  | binds |
